From article PMC4960544, “Production of full-length soluble Plasmodium falciparum RH5 protein vaccine using a Drosophila melanogaster Schneider 2 stable cell line system” (Scientific Reports, 2016)

Experiments:
Test in all cases: SPR; basigin immobilised on a CM5 chip by amine coupling (850 RU); PfRH5 variant injected at 8-0.0625 uM, 120 s at 30 uL/min, 300 s dissociation; 20 C; 10 mM HEPES pH 7.4, 150 mM NaCl, 3 mM EDTA, 0.005% Tween-20, 2 mg/mL dextran, 1 mg/mL salmon sperm DNA; blank surface subtracted; global 1:1 interaction model
Conditions in all cases: both partners purified
[1] = target: T1, PfRH5 protein variant version 2.0 (3D7 sequence, four N-linked glycosylation sequons mutated Thr to Ala) (Plasmodium falciparum (3D7 clone), UniProt Q8IFM5 26-526, Thr to Ala in the sequon starting at N38 (position 40 worked out) | Thr to Ala …)
T1 construct: The construct has an N-terminal BiP insect signal peptide (…); No cleavage site for the His6 tag is described; also called PfRH5 v2.0; v2.0
T1 sequence: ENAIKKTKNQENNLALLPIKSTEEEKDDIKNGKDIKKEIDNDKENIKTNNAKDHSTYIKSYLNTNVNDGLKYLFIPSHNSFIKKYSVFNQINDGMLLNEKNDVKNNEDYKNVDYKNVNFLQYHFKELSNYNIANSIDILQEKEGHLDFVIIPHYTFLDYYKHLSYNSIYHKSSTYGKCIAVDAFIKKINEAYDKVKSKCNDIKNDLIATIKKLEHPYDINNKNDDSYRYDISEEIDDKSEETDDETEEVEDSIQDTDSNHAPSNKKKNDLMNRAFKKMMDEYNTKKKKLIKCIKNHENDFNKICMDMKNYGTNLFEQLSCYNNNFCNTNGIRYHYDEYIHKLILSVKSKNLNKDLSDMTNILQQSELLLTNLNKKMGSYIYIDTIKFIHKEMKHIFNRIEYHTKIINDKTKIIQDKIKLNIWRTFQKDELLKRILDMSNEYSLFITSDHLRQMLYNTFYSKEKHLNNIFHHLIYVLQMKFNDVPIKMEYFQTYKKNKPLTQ

[2] = target: T2, PfRH5 protein variant version 4.0 (3D7 sequence, N38Q and N214Q) (Plasmodium falciparum (3D7 clone), UniProt Q8IFM5 26-526, N38Q | N214Q)
T2 construct: only two of the putative N-linked glycosylation sites mutated (N38Q and N214Q); The construct has an N-terminal BiP insect signal peptide (…); No cleavage site for the His6 tag is described; No evidence of glycosylation was found for this variant; also called PfRH5 v4.0; v4.0; source: without the Con A step
T2 sequence: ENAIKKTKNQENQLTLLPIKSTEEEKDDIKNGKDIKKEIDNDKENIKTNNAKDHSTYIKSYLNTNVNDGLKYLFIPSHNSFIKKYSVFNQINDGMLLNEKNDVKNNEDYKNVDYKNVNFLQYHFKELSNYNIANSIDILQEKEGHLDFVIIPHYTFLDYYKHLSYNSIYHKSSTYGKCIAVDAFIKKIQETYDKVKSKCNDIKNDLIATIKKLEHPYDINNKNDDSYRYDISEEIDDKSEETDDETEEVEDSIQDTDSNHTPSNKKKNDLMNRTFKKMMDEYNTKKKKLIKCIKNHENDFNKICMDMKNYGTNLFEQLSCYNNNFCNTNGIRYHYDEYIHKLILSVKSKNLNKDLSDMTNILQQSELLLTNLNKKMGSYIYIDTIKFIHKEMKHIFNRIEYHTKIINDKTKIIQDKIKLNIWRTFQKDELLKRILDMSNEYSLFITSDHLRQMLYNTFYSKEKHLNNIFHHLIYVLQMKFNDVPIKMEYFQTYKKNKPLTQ

[3] = target: T3, PfRH5 protein variant version 5.0 (native 3D7 PfRH5 sequence) (Plasmodium falciparum (3D7 clone), UniProt Q8IFM5 26-526, N-linked glycan(s): one or both of the N-X-T sequons starting at N38 and N214 are glycosylated)
T3 construct: The construct has an N-terminal BiP insect signal peptide (…); No cleavage site for the His6 tag is described; also called PfRH5 v5.0; v5.0; source: without the Con A step
T3 sequence: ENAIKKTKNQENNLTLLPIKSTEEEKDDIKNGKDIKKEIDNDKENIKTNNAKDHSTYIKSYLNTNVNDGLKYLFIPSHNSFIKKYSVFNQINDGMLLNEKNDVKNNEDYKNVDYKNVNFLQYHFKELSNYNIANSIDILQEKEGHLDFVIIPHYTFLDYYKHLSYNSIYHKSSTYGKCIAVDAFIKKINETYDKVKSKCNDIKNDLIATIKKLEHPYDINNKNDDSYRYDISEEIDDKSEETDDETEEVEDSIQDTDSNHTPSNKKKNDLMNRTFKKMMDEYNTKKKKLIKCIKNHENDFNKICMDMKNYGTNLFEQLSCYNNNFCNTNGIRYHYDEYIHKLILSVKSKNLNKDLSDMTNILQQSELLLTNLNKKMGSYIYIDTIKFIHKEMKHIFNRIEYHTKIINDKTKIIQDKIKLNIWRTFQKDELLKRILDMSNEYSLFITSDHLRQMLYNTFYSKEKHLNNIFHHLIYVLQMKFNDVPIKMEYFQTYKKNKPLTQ

Measured: binding result

B1: recombinant basigin, immunoglobulin domains 1 and 2 of the short isoform (22-205) (domain or fragment)
chain: GAAGTVFTTVEDLGSKILLTCSLNDSATEVTGHRWLKGGVVLKEDALPGQKTEFKVDSDDQWGEYSCVFLPEPMGTANIQLHGPPRVKAVKSSEHINEGETAMLVCKSESVPPVTDWAWYKITDSEDKALMNGSESRFFVSSSQGRSELHIENLNMEADPGQYRCNGTSSKGSDQAIITLRVRSH
notes: additional glycine left at the N-terminus from the TEV cleavage site; basigin (CD147), immunoglobulin domains 1 and 2 of the short isoform, residues 22-205; numbers count on: the short isoform; basigin is spoken of as the red blood cell receptor of the human malaria parasite; also called CD147; PfRH5 receptor; not shown: His6, N-terminal, cleaved
binds: all assays above
